Laboratory results from PMC10681709, “Molecular insight into the specific enzymatic properties of TREX1 revealing the diverse functions in processing RNA and DNA/RNA hybrids”.

What was measured:
[1] = target: T1, mTREX1 truncated (nuclease domain) (Mus musculus, UniProt Q91XB0 1-242); experiment: fluorescence anisotropy; 20 mM EDTA; not saturated, extrapolated (legend prints uM, text nM); FA: 5 nM FAM nucleic acid, 120 mM NaCl, 20 mM Tris pH 7.0, 20 mM EDTA, room temperature, 30 min; RNase T EMSA: 120 mM NaCl, 50 mM EDTA, 20 mM buffer (truncated); details: protein: recombinant; tags: His-tag; chain copies: 2; label: 5'-FAM; single strand
T1 sequence: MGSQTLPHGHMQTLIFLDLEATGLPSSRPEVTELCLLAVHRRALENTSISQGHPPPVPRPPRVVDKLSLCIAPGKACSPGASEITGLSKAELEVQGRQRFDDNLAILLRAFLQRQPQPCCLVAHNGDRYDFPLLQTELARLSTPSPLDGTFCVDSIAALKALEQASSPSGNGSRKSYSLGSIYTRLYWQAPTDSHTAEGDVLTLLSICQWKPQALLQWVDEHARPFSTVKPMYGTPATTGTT

[2] = target: T1, mTREX1 truncated (nuclease domain); experiment: fluorescence anisotropy; 20 mM EDTA; extrapolated; legend prints uM, but nM fits the stated ~500-fold drop vs ssDNA20; FA: 5 nM FAM nucleic acid, 120 mM NaCl, 20 mM Tris pH 7.0, 20 mM EDTA, room temperature, 30 min; RNase T EMSA: 120 mM NaCl, 50 mM EDTA, 20 mM buffer (truncated); details: protein: recombinant; tags: His-tag; chain copies: 2; label: 5'-FAM; single strand
[3] = target: T1, mTREX1 truncated (nuclease domain); experiment: fluorescence anisotropy; 20 mM EDTA, no Mg2+; FA: 5 nM FAM nucleic acid, 120 mM NaCl, 20 mM Tris pH 7.0, 20 mM EDTA, room temperature, 30 min; RNase T EMSA: 120 mM NaCl, 50 mM EDTA, 20 mM buffer (truncated); details: protein: recombinant, tags: His-tag, chain copies: 2
[4] = target: T1, mTREX1 truncated (nuclease domain); experiment: fluorescence anisotropy; 20 mM EDTA; Kd stated between those of dsDNA (139.4 nM) and DNA/RNA hybrid (102.0 nM); FA: 5 nM FAM nucleic acid, 120 mM NaCl, 20 mM Tris pH 7.0, 20 mM EDTA, room temperature, 30 min; RNase T EMSA: 120 mM NaCl, 50 mM EDTA, 20 mM buffer (truncated); details: protein: recombinant; tags: His-tag; chain copies: 2; label: 5'-FAM on strand 1; blunt

**Q.** ACUGGACAAAUACUCCGAGG (ssRNA) [ssRNA20] was tested. Which Kd [1] did it give?
**A.** ~59000 nM

**Q.** For ACTGGACAAATACTCCGAGG (mixed, 3'-terminal A18 G19 G20 are ribonucleotides; positions 1-17 DNA) [ssDNA17+RNA3 (ss17D3R)], which Kd [2] is on record?
**A.** ~39600 nM

B1: dsDNA20 (dsDNA)
DNA 1: ACTGGACAAATACTCCGAGG
DNA 2: CCTCGGAGTATTTGTCCAGT
**Q.** For B1, which Kd ([3]; label: 5'-FAM on strand 1, blunt) is on record?
**A.** 139 ± 17.2 nM

B2: DNA/RNA hybrid 20 bp (DNA:RNA)
DNA: ACTGGACAAATACTCCGAGG
RNA: CCUCGGAGUAUUUGUCCAGU
**Q.** B2 was tested. Which Kd ([3]; blunt) did it give?
**A.** 102 ± 8 nM

B3: dsDNA19+RNA1 (ss19D1R/ssDNA20) (mixed)
DNA 1: ACTGGACAAATACTCCGAGG
DNA 2: CCTCGGAGTATTTGTCCAGT
modifications: strand 1 3'-terminal G20 is a ribonucleotide; rest DNA
**Q.** Does B3 bind [4]?
**A.** binds

**Q.** How did the Kd ([3]; label: 5'-FAM, single strand) turn out when ACTGGACAAATACTCCGAGG (ssDNA) [ssDNA20] was run?
**A.** 77.7 ± 6 nM
